Measurements taken from the supplement of paper PMC9112550, “Optimization of the antimicrobial peptide Bac7 by deep mutational scanning” (BMC Biology, 2022).

Tested on: Escherichia coli TOP10
Assay: shrunken log2 fold change of peptide-encoding DNA abundance (4.5 h post-induction vs induction); higher = less antimicrobial activity (less host growth inhibition)
Conditions: time post-induction: 4.5 h; library: site-saturation at positions 5, 18, 19, 20
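Further: peptides expressed intracellularly from a pBAD plasmid library in pooled LB shake-flask culture, induced with 0.3% L-arabinose, DNA abundance read by NGS, three biological replicates, DESeq2 with apeglm shrinkage.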

Sequence	shrunken log2 fold change
RRIRNRPPRLPRPRPRPVDSPRP	-0.196
RRIRPRPPRLPRPRPRPYFEPRP	-0.633
RRIRQRPPRLPRPRPRPLTRPRP	0.424
RRIRPRPPRLPRPRPRPKFEPRP	0.319
RRIRVRPPRLPRPRPRPCYMPRP	0.155
RRIRNRPPRLPRPRPRPWSYPRP	-0.0175
RRIRCRPPRLPRPRPRPKSMPRP	-0.541
RRIRNRPPRLPRPRPRPVKVPRP	-0.0708
RRIRRRPPRLPRPRPRPWQLPRP	0.144
RRIRERPPRLPRPRPRPLSTPRP	-0.48
RRIRVRPPRLPRPRPRPLGDPRP	-0.125
RRIRLRPPRLPRPRPRPHTWPRP	-0.202
RRIRYRPPRLPRPRPRPTGRPRP	0.0692
RRIRARPPRLPRPRPRPILWPRP	0.254
RRIRWRPPRLPRPRPRPTLFPRP	0.0961
RRIRKRPPRLPRPRPRPQHTPRP	0.0113
RRIRGRPPRLPRPRPRPPWKPRP	0.435
RRIRPRPPRLPRPRPRPVMEPRP	-0.101
RRIRGRPPRLPRPRPRPQQFPRP	0.239
RRIRRRPPRLPRPRPRPLHQPRP	0.32
RRIRVRPPRLPRPRPRPTHNPRP	0.0759
RRIRSRPPRLPRPRPRPNQWPRP	0.0342
RRIRVRPPRLPRPRPRPSMMPRP	-0.888
RRIRKRPPRLPRPRPRPFRQPRP	-0.0695
RRIRWRPPRLPRPRPRPDCYPRP	0.148

Sequence	shrunken log2 fold change
RRIRGRPPRLPRPRPRPLNTPRP	0.0396
RRIRARPPRLPRPRPRPQHYPRP	-0.474
RRIRRRPPRLPRPRPRPHMIPRP	-0.13
RRIRLRPPRLPRPRPRPDCSPRP	0.0574
RRIRWRPPRLPRPRPRPYWKPRP	-0.123
RRIRFRPPRLPRPRPRPYLEPRP	-0.0738
RRIRCRPPRLPRPRPRPSKDPRP	-0.361
RRIRHRPPRLPRPRPRPWVDPRP	0.0471
RRIRDRPPRLPRPRPRPFPNPRP	-0.503
RRIRLRPPRLPRPRPRPQDSPRP	-0.276
RRIRKRPPRLPRPRPRPFSYPRP	-0.324
RRIRRRPPRLPRPRPRPFPPPRP	0.222
RRIRLRPPRLPRPRPRPHGLPRP	0.123
RRIRFRPPRLPRPRPRPRPLPRP	0.406
RRIRCRPPRLPRPRPRPNCDPRP	-0.233
RRIRERPPRLPRPRPRPSCEPRP	-0.668
RRIRNRPPRLPRPRPRPMRVPRP	0.161
RRIRQRPPRLPRPRPRPMRFPRP	0.0202
RRIRWRPPRLPRPRPRPPVYPRP	-0.0994
RRIRLRPPRLPRPRPRPDCNPRP	0.0608
RRIRQRPPRLPRPRPRPDTSPRP	0.00601
RRIRYRPPRLPRPRPRPDHKPRP	-0.308
RRIRTRPPRLPRPRPRPWRHPRP	-0.0184
RRIRDRPPRLPRPRPRPDAYPRP	0.0301
RRIRHRPPRLPRPRPRPYHLPRP	-0.085

Sequence	shrunken log2 fold change
RRIRGRPPRLPRPRPRPHENPRP	0.446
RRIRHRPPRLPRPRPRPYTLPRP	-0.611
RRIRARPPRLPRPRPRPAKMPRP	0.463
RRIRGRPPRLPRPRPRPYHTPRP	-0.779
RRIRSRPPRLPRPRPRPVHAPRP	0.214
RRIRGRPPRLPRPRPRPTGWPRP	1.04
RRIRMRPPRLPRPRPRPIVFPRP	0.038
RRIRSRPPRLPRPRPRPKQNPRP	0.0535
RRIRFRPPRLPRPRPRPHHNPRP	-0.754
RRIRKRPPRLPRPRPRPERRPRP	0.337
RRIRTRPPRLPRPRPRPMNNPRP	-0.582
RRIRKRPPRLPRPRPRPMVWPRP	0.722
RRIRDRPPRLPRPRPRPNYAPRP	-0.457
RRIRPRPPRLPRPRPRPFHFPRP	-0.339
RRIRRRPPRLPRPRPRPLFGPRP	0.649
RRIRVRPPRLPRPRPRPDHYPRP	-0.149
RRIRLRPPRLPRPRPRPFWQPRP	-0.0702
RRIRTRPPRLPRPRPRPCGNPRP	-0.0693
RRIRERPPRLPRPRPRPQGCPRP	-0.0179
RRIRRRPPRLPRPRPRPQGQPRP	-0.0135
RRIRDRPPRLPRPRPRPPREPRP	0.837
RRIRGRPPRLPRPRPRPLDPPRP	0.9
RRIRVRPPRLPRPRPRPSAMPRP	0.0604
RRIRSRPPRLPRPRPRPRANPRP	0.174
RRIRGRPPRLPRPRPRPLCGPRP	0.78

Sequence	shrunken log2 fold change
RRIRMRPPRLPRPRPRPDSDPRP	2.6
RRIRSRPPRLPRPRPRPFKEPRP	-0.117
RRIRSRPPRLPRPRPRPMLWPRP	0.619
RRIRARPPRLPRPRPRPYQAPRP	-0.0488
RRIRGRPPRLPRPRPRPIQQPRP	0.0149
RRIRSRPPRLPRPRPRPEWPPRP	0.112
RRIRPRPPRLPRPRPRPIRHPRP	-0.146
RRIRWRPPRLPRPRPRPWNDPRP	0.0222
RRIRSRPPRLPRPRPRPYMTPRP	-0.586
RRIRLRPPRLPRPRPRPIRCPRP	-0.0375
RRIRGRPPRLPRPRPRPNQTPRP	-0.0961
RRIRMRPPRLPRPRPRPKATPRP	0.0633
RRIRTRPPRLPRPRPRPTPKPRP	0.283
RRIRTRPPRLPRPRPRPRMGPRP	0.108
RRIRMRPPRLPRPRPRPWATPRP	0.194
RRIRFRPPRLPRPRPRPPCEPRP	0.409
RRIRRRPPRLPRPRPRPKHAPRP	0.407
RRIRVRPPRLPRPRPRPNGNPRP	-0.323
RRIRTRPPRLPRPRPRPGDIPRP	-0.119
RRIRKRPPRLPRPRPRPPAQPRP	0.698
RRIRMRPPRLPRPRPRPLYYPRP	-0.53
RRIRMRPPRLPRPRPRPMMAPRP	1.8
RRIRNRPPRLPRPRPRPDKGPRP	0.00408
RRIRFRPPRLPRPRPRPPWAPRP	0.267
RRIRLRPPRLPRPRPRPHAMPRP	-0.0654

Sequence	shrunken log2 fold change
RRIRFRPPRLPRPRPRPCPIPRP	-0.488
RRIRGRPPRLPRPRPRPDKQPRP	0.0252
RRIRHRPPRLPRPRPRPMSDPRP	0.00234
RRIRRRPPRLPRPRPRPYFWPRP	0.0638
RRIRGRPPRLPRPRPRPSVEPRP	0.651
RRIRERPPRLPRPRPRPIPMPRP	-0.136
RRIRIRPPRLPRPRPRPYNTPRP	-0.725
RRIRPRPPRLPRPRPRPRRWPRP	0.56
RRIRVRPPRLPRPRPRPRAHPRP	0.00164
RRIRFRPPRLPRPRPRPRFWPRP	0.317
RRIRPRPPRLPRPRPRPNAGPRP	0.0847
RRIRKRPPRLPRPRPRPDYQPRP	-0.0353
RRIRPRPPRLPRPRPRPMPTPRP	0.22
RRIRDRPPRLPRPRPRPVTNPRP	0.102
RRIRYRPPRLPRPRPRPMCYPRP	-0.399
RRIRNRPPRLPRPRPRPMVAPRP	0.0624
RRIRIRPPRLPRPRPRPTWVPRP	-0.022
RRIRCRPPRLPRPRPRPVFEPRP	-0.00537
RRIRARPPRLPRPRPRPAICPRP	0.252
RRIRMRPPRLPRPRPRPNMQPRP	0.0607
RRIRFRPPRLPRPRPRPFKLPRP	-0.0106
RRIRARPPRLPRPRPRPAYSPRP	-0.0547
RRIRMRPPRLPRPRPRPAQFPRP	-0.107
RRIRIRPPRLPRPRPRPFWAPRP	-0.0374
RRIRLRPPRLPRPRPRPPDQPRP	0.349

Sequence	shrunken log2 fold change
RRIRPRPPRLPRPRPRPMNMPRP	-0.668
RRIRCRPPRLPRPRPRPAITPRP	-0.372
RRIRGRPPRLPRPRPRPPGKPRP	0.807
RRIRRRPPRLPRPRPRPNFMPRP	0.142
RRIRVRPPRLPRPRPRPWDVPRP	-0.0177
RRIRWRPPRLPRPRPRPRAGPRP	0.673
RRIRERPPRLPRPRPRPFVRPRP	-0.146
RRIRDRPPRLPRPRPRPAAHPRP	0.66
RRIRVRPPRLPRPRPRPTSDPRP	0.431
RRIRFRPPRLPRPRPRPNWMPRP	-0.0436
RRIRHRPPRLPRPRPRPVLRPRP	-0.0204
RRIRSRPPRLPRPRPRPHFSPRP	-0.112
RRIRWRPPRLPRPRPRPPIKPRP	-0.0713
RRIRTRPPRLPRPRPRPFVSPRP	0.00713
RRIRNRPPRLPRPRPRPVVTPRP	-0.114
RRIRYRPPRLPRPRPRPFAHPRP	-0.00804
RRIRLRPPRLPRPRPRPNQYPRP	-0.126
RRIRDRPPRLPRPRPRPLIAPRP	0.468
RRIRCRPPRLPRPRPRPIGKPRP	-0.188
RRIRVRPPRLPRPRPRPRGHPRP	0.175
RRIRMRPPRLPRPRPRPKEAPRP	-0.00711
RRIRMRPPRLPRPRPRPQALPRP	0.0439
RRIRYRPPRLPRPRPRPVGKPRP	-1.51
RRIRQRPPRLPRPRPRPCNFPRP	0.0393
RRIRFRPPRLPRPRPRPFPNPRP	-0.0354
